Source: article PMC9482650, “Quantitative fragmentomics allow affinity mapping of interactomes” (Nature Communications, 2022)

T1: APBA1_1, Q02410
T1 sequence (Q02410 651-752, limits assumed, looked up): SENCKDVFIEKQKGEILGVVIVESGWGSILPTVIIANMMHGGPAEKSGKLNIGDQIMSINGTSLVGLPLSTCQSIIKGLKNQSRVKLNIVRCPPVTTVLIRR

T2: RHPN1, Q8TCX5
T2 sequence (Q8TCX5 508-602, limits assumed, looked up): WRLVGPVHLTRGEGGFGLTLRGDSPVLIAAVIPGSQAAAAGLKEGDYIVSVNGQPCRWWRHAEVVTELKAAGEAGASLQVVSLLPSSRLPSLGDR

T3: NHERF3_1, Q5T2W1
T3 sequence (Q5T2W1 4-100, limits assumed, looked up): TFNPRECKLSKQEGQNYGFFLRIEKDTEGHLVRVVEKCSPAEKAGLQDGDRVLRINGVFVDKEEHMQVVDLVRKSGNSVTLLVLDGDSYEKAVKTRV

T4: GRIP1_3, Q9Y3R0
T4 sequence (Q9Y3R0 247-346, limits assumed, looked up): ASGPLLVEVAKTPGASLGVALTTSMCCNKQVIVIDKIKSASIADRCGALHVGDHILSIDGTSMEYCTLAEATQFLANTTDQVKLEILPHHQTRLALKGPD

T5: NHERF3_3, Q5T2W1
T5 sequence (Q5T2W1 238-333, limits assumed, looked up): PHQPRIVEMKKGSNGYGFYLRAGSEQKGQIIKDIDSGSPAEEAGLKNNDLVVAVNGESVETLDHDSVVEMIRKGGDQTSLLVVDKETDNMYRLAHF

T6: SYNJ2BP, P57105
T6 sequence (P57105 8-110, limits assumed, looked up): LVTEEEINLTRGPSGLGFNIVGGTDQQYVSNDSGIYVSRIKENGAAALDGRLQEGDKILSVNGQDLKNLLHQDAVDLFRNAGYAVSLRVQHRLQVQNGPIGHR

T7: DLG3_2, Q92796
T7 sequence (Q92796 221-321, limits assumed, looked up): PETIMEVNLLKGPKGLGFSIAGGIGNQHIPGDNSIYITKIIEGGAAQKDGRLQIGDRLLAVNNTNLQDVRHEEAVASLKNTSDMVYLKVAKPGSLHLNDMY

T8: LNX2_2, Q8N448
T8 sequence (Q8N448 334-432, limits assumed, looked up): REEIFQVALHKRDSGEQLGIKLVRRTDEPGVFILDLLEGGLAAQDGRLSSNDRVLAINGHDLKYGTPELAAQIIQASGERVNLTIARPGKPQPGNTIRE

T9: APBA2_1, Q99767
T9 sequence (Q99767 563-664, limits assumed, looked up): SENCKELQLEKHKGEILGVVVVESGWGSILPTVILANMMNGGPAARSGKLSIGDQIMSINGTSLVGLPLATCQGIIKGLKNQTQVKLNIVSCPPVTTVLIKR

T10: GRIP1_5, Q9Y3R0
T10 sequence (Q9Y3R0 568-668, limits assumed, looked up): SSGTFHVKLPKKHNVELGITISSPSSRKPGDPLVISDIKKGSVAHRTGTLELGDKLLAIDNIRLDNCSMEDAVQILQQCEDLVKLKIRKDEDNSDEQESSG

T11: MPP2, Q14168
T11 sequence (Q14168 180-250, limits assumed, looked up): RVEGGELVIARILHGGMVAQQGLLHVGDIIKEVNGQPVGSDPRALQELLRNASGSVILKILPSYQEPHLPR

T12: APBA1_2, Q02410
T12 sequence (Q02410 742-832, limits assumed, looked up): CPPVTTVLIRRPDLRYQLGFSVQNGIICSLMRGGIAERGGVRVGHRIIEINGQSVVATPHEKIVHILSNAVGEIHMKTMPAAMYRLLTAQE

B1: KCNB1, Q14721 (peptide)
chain: AHGSTRDQSI
B2: KCNA6, P17658 (peptide)
chain: YAEKRMLTEV
B3: DFNB31, Q9P202 (peptide)
chain: FLVTEFNVML
B4: CSPG4, Q6UVK1 (peptide)
chain: PALKNGQYWV

target: T1, APBA1_1, Q02410; test: holdup assay; parameters: key: below the threshold = too weak to quantify, mostly under pKd 3.1 to 4; details: plain residues with an end cap or a label only (N-terminal biotin on a linker: ado-ado)

Binder | pKd
B1 | below the threshold
B2 | below the threshold
B3 | below the threshold
B4 | below the threshold

target: IL16_3, Q14005; test: holdup assay; parameters: key: below the threshold = too weak to quantify, mostly under pKd 3.1 to 4; details: plain residues with an end cap or a label only (N-terminal biotin on a linker: ado-ado)
Sequence (Q14005 1107-1207): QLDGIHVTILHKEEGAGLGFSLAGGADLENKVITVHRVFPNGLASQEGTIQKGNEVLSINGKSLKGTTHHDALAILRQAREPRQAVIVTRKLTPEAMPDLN

Binder | pKd
B1 | below the threshold
B2 | below the threshold
B3 | below the threshold
B4 | below the threshold

target: T2, RHPN1, Q8TCX5; test: holdup assay; parameters: key: below the threshold = too weak to quantify, mostly under pKd 3.1 to 4; details: plain residues with an end cap or a label only (N-terminal biotin on a linker: ado-ado)

Binder | pKd
B1 | below the threshold
B2 | 3.8
B3 | below the threshold
B4 | below the threshold

target: T3, NHERF3_1, Q5T2W1; test: holdup assay; parameters: key: below the threshold = too weak to quantify, mostly under pKd 3.1 to 4; details: plain residues with an end cap or a label only (N-terminal biotin on a linker: ado-ado)

Binder | pKd
B1 | below the threshold
B2 | below the threshold
B3 | 4.88
B4 | below the threshold

target: T4, GRIP1_3, Q9Y3R0; test: holdup assay; parameters: key: below the threshold = too weak to quantify, mostly under pKd 3.1 to 4; details: plain residues with an end cap or a label only (N-terminal biotin on a linker: ado-ado)

Binder | pKd
B1 | below the threshold
B2 | below the threshold
B3 | below the threshold
B4 | below the threshold

target: T5, NHERF3_3, Q5T2W1; test: holdup assay; parameters: key: below the threshold = too weak to quantify, mostly under pKd 3.1 to 4; details: plain residues with an end cap or a label only (N-terminal biotin on a linker: ado-ado)

Binder | pKd
B1 | below the threshold
B2 | below the threshold
B3 | below the threshold
B4 | below the threshold

target: PDLIM1, O00151; test: holdup assay; parameters: key: below the threshold = too weak to quantify, mostly under pKd 3.1 to 4; details: plain residues with an end cap or a label only (N-terminal biotin on a linker: ado-ado)
Sequence (O00151 1-87): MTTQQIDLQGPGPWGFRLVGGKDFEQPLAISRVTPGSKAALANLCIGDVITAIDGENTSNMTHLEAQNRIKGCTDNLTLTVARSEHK

Binder | pKd
B1 | below the threshold
B2 | below the threshold
B3 | 3.75
B4 | below the threshold

target: FRMPD3, Q5JV73; test: holdup assay; parameters: key: below the threshold = too weak to quantify, mostly under pKd 3.1 to 4; details: plain residues with an end cap or a label only (N-terminal biotin on a linker: ado-ado)
Sequence (Q5JV73 12-100): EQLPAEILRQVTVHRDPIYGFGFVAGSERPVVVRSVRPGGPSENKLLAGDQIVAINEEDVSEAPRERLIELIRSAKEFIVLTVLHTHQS

Binder | pKd
B1 | below the threshold
B2 | below the threshold
B3 | 3.97
B4 | below the threshold

target: DLG4_1, P78352; test: holdup assay; parameters: key: below the threshold = too weak to quantify, mostly under pKd 3.1 to 4; details: plain residues with an end cap or a label only (N-terminal biotin on a linker: ado-ado)
Sequence (P78352 62-152): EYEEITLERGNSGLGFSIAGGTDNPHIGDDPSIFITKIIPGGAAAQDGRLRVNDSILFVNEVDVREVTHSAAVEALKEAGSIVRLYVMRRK

Binder | pKd
B1 | below the threshold
B2 | 3.65
B3 | below the threshold
B4 | below the threshold

target: DLG4_2, P78352; test: holdup assay; parameters: key: below the threshold = too weak to quantify, mostly under pKd 3.1 to 4; details: plain residues with an end cap or a label only (N-terminal biotin on a linker: ado-ado)
Sequence (P78352 155-259): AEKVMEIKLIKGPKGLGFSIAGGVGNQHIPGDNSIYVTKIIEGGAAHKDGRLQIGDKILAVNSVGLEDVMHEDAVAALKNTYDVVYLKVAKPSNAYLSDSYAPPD

Binder | pKd
B1 | 4.09
B2 | 4.23
B3 | below the threshold
B4 | below the threshold

target: T6, SYNJ2BP, P57105; test: holdup assay; parameters: key: below the threshold = too weak to quantify, mostly under pKd 3.1 to 4; details: plain residues with an end cap or a label only (N-terminal biotin on a linker: ado-ado)

Binder | pKd
B1 | below the threshold
B2 | 4.05
B3 | below the threshold
B4 | below the threshold

target: T7, DLG3_2, Q92796; test: holdup assay; parameters: key: below the threshold = too weak to quantify, mostly under pKd 3.1 to 4; details: plain residues with an end cap or a label only (N-terminal biotin on a linker: ado-ado)

Binder | pKd
B1 | 4.21
B2 | 4.6
B3 | below the threshold
B4 | below the threshold

target: T8, LNX2_2, Q8N448; test: holdup assay; parameters: key: below the threshold = too weak to quantify, mostly under pKd 3.1 to 4; details: plain residues with an end cap or a label only (N-terminal biotin on a linker: ado-ado)

Binder | pKd
B1 | below the threshold
B2 | 4.04
B3 | below the threshold
B4 | 5.28

target: GRIP2_4, Q9C0E4; test: holdup assay; parameters: key: below the threshold = too weak to quantify, mostly under pKd 3.1 to 4; details: plain residues with an end cap or a label only (N-terminal biotin on a linker: ado-ado)
Sequence (Q9C0E4 446-548): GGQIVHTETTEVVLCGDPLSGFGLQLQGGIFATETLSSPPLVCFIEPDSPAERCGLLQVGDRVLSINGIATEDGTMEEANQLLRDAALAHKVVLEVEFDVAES

Binder | pKd
B1 | 3.68
B2 | below the threshold
B3 | below the threshold
B4 | below the threshold

target: GRID2IP_2, A4D2P6; test: holdup assay; parameters: key: below the threshold = too weak to quantify, mostly under pKd 3.1 to 4; details: plain residues with an end cap or a label only (N-terminal biotin on a linker: ado-ado)
Sequence (A4D2P6 272-370): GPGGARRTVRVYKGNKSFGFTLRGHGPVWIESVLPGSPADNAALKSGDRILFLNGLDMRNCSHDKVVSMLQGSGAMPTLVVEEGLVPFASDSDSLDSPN

Binder | pKd
B1 | below the threshold
B2 | 3.72
B3 | below the threshold
B4 | 3.75

target: HTRA1, Q92743; test: holdup assay; parameters: key: below the threshold = too weak to quantify, mostly under pKd 3.1 to 4; details: plain residues with an end cap or a label only (N-terminal biotin on a linker: ado-ado)
Sequence (Q92743 360-477): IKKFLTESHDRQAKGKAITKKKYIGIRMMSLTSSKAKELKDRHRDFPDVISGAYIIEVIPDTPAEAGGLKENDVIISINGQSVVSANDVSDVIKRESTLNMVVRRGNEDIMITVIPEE

Binder | pKd
B1 | 3.53
B2 | 3.91
B3 | 4.4
B4 | 5.1

target: GRIP2_5, Q9C0E4; test: holdup assay; parameters: key: below the threshold = too weak to quantify, mostly under pKd 3.1 to 4; details: plain residues with an end cap or a label only (N-terminal biotin on a linker: ado-ado)
Sequence (Q9C0E4 544-642): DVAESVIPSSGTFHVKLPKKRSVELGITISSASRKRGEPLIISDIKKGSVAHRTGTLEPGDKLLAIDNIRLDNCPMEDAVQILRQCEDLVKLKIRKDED

Binder | pKd
B1 | below the threshold
B2 | below the threshold
B3 | below the threshold
B4 | below the threshold

target: T9, APBA2_1, Q99767; test: holdup assay; parameters: key: below the threshold = too weak to quantify, mostly under pKd 3.1 to 4; details: plain residues with an end cap or a label only (N-terminal biotin on a linker: ado-ado)

Binder | pKd
B1 | below the threshold
B2 | below the threshold
B3 | below the threshold
B4 | below the threshold

target: T10, GRIP1_5, Q9Y3R0; test: holdup assay; parameters: key: below the threshold = too weak to quantify, mostly under pKd 3.1 to 4; details: plain residues with an end cap or a label only (N-terminal biotin on a linker: ado-ado)

Binder | pKd
B1 | 3.54
B2 | below the threshold
B3 | below the threshold
B4 | below the threshold

target: T11, MPP2, Q14168; test: holdup assay; parameters: key: below the threshold = too weak to quantify, mostly under pKd 3.1 to 4; details: plain residues with an end cap or a label only (N-terminal biotin on a linker: ado-ado)

Binder | pKd
B1 | below the threshold
B2 | below the threshold
B3 | below the threshold
B4 | below the threshold

target: T12, APBA1_2, Q02410; test: holdup assay; parameters: key: below the threshold = too weak to quantify, mostly under pKd 3.1 to 4; details: plain residues with an end cap or a label only (N-terminal biotin on a linker: ado-ado)

Binder | pKd
B1 | below the threshold
B2 | 3.72
B3 | 3.84
B4 | 4.67

target: DLG2_3, Q15700; test: holdup assay; parameters: key: below the threshold = too weak to quantify, mostly under pKd 3.1 to 4; details: plain residues with an end cap or a label only (N-terminal biotin on a linker: ado-ado)

Binder | pKd
B1 | 3.82
B2 | 3.98
B3 | below the threshold
B4 | below the threshold

target: Inadl_8, Q8NI35; test: holdup assay; parameters: key: below the threshold = too weak to quantify, mostly under pKd 3.1 to 4; details: plain residues with an end cap or a label only (N-terminal biotin on a linker: ado-ado)
Sequence (Q8NI35 1425-1530): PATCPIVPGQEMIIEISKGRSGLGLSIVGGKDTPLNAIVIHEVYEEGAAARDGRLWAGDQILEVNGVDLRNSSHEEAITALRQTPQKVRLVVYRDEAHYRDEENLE

Binder | pKd
B1 | below the threshold
B2 | below the threshold
B3 | below the threshold
B4 | 3.5

target: PICK1, Q9NRD5; test: holdup assay; parameters: key: below the threshold = too weak to quantify, mostly under pKd 3.1 to 4; details: plain residues with an end cap or a label only (N-terminal biotin on a linker: ado-ado)
Sequence (Q9NRD5 17-115): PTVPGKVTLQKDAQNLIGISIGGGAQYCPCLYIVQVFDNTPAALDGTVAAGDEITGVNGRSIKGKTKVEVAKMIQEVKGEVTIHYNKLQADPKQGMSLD

Binder | pKd
B1 | 4.15
B2 | below the threshold
B3 | below the threshold
B4 | below the threshold

target: MAGI1_1, Q96QZ7; test: holdup assay; parameters: key: below the threshold = too weak to quantify, mostly under pKd 3.1 to 4; details: plain residues with an end cap or a label only (N-terminal biotin on a linker: ado-ado)
Sequence (Q96QZ7 1-106): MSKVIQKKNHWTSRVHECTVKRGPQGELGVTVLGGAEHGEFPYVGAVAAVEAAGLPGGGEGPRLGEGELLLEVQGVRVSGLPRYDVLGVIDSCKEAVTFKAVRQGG

Binder | pKd
B1 | below the threshold
B2 | below the threshold
B3 | below the threshold
B4 | below the threshold

target: NOS1, P29475; test: holdup assay; parameters: key: below the threshold = too weak to quantify, mostly under pKd 3.1 to 4; details: plain residues with an end cap or a label only (N-terminal biotin on a linker: ado-ado)
Sequence (P29475 9-101): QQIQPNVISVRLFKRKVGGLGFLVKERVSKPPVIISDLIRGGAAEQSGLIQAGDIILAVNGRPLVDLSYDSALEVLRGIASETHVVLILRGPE

Binder | pKd
B1 | below the threshold
B2 | below the threshold
B3 | below the threshold
B4 | 4.09
